Patent publication CN115992129A (YEASEN BIOLOGICAL TECH SHANGHAI CO LTD, dated 2023)

Biological target: T1, BSA (UniProt P02769 25-607)
T1 construct: Negative control antigen in ELISA; also called BSA对照
Test: ELISA, BSA coated and blocked as control, HRP anti-IgY secondary

T1 sequence (P02769 25-607 limits assumed): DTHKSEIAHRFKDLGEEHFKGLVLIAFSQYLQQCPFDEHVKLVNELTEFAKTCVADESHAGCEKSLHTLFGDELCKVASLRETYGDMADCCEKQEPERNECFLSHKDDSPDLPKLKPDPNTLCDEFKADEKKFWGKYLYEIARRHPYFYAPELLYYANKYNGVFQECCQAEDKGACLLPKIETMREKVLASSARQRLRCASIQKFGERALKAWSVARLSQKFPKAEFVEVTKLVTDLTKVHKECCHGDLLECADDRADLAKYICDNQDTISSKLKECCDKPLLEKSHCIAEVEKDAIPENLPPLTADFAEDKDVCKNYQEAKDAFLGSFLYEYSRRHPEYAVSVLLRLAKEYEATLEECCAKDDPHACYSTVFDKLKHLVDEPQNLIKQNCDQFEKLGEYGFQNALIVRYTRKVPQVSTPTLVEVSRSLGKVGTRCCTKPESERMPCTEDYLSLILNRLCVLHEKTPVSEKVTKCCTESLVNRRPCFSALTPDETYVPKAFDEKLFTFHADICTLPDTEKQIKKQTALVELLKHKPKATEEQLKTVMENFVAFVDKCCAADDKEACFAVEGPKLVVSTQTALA

| Binder | binding result |
| --- | --- |
| ProteinA抗体IgY-80 (antibody, V domains shown, Biotin-conjugated as the detection antibody in the sandwich ELISA) VH: AVTLDESGGGLQTPGGTLSLVCKASGFTFSDRGMHWVRQAPGKGLEWVAGTYTSGSITYYAPAVNGRATISRDNGQSTLRLQLNNLRAEDSGTYYCARDFGPSGWNAGSIDAWGHGTEVIVSS VL: QAALTQPSSVSANLGGTVKITCSGGGSRYGYMYGWIQQTSPGSAPVTVIYDNTNRPSNIPSRFSGSLSGSTNTLTITGVQAEDEAVYFCGSYEGTTLTFGAGTTLTVL | no binding (tested: 1μg/ml, two-fold dilutions) |
| ProteinA抗体IgY-81 (antibody, V domains shown, Coating (capture) antibody in the sandwich ELISA) VH: AVTLDESGGGLQTPGGALSLVCKASGFTFSSNGMGWVRQAPGKGLEYVASISNDGSLTDYASPVKGRATISRDNGQSTVRLQLNNLRAEDTGTYYCAKSPGGGWLADPIDAWGRGTEVIVSS VL: QAALTQPASVSANPGETVQITCSGGGSSRYYGWYQQKSPGSAPVTLIYDNINRPSGIPSRFSGSTSGSTGTLSITGVRAEDEAVYYCGSFDSSGTGIFGAGTTLTVL | no binding (tested: 1μg/ml, two-fold dilutions) |
